The experiment deals with Amyloid-beta 42 oligomers Abeta42 (Homo sapiens, UniProt P05067, biotinylated Abeta42 oligomers, HA-tagged NRX1beta). As to the kind of experiment: cell surface binding assay, Scatchard.

B1: Neurexin-1beta S4(-) (protein)
chain: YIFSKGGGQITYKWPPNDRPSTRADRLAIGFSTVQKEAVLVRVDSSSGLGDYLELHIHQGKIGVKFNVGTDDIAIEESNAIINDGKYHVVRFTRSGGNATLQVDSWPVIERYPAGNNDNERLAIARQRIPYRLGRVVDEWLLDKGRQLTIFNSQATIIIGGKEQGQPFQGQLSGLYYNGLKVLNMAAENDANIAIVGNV
As for B1, the Kd is 184 nM.

In general, Kd refers to a measure of binding affinity in units of concentration.

(Values after article PMC5304201 (2017).)
